From patent US20220010021A1 (Sanofi, published 2022)
Changes are numbered by the printed parent chain. Numbers in names are those of the source.

Experiments:
[1] = biological target: T1, human beta-Klotho (KLB) (human, UniProt Q86Z14 53-997); test: BLI off-rate screen
T1 construct: bought recombinant protein, analyte of the BLI off-rate screen; also called human KLB
T1 sequence (looked up): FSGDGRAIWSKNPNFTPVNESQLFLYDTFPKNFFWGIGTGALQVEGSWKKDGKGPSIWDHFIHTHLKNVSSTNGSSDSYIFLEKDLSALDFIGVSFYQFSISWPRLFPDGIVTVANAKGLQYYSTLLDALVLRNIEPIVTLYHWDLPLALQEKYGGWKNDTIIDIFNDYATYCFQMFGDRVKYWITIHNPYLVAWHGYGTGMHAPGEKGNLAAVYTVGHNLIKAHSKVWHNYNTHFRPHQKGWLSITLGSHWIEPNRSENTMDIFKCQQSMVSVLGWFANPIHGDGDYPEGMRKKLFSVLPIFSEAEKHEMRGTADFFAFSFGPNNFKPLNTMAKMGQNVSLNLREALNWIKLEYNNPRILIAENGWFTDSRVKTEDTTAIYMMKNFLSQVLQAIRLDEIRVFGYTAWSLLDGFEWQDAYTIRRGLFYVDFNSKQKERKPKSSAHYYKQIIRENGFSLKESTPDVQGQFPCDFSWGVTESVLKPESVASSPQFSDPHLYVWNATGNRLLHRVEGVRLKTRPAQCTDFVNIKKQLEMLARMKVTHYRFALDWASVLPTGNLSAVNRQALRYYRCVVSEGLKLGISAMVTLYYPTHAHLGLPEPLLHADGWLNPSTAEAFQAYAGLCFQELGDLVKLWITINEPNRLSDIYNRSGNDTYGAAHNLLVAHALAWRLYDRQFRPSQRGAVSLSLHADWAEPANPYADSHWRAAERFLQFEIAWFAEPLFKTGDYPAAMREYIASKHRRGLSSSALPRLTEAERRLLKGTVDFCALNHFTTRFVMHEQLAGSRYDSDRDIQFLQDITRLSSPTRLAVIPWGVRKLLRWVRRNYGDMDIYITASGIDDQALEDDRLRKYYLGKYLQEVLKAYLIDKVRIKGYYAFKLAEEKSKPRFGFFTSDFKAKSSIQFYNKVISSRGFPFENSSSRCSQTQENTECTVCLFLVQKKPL

[2] = biological target: cell surface receptor composed of FGFR1c and co-receptor beta-Klotho (KLB) on iLite FGF21 Assay Ready Cells (human, UniProt P11362 22-822; Q86Z14 1-1044); test: cell-based or functional assay
[3] = biological target: T2, human beta-Klotho (KLB) (human, UniProt Q86Z14 53-997); test: BLI off-rate screening (Octet HTX), antibody from supernatant on anti-hIgG Fc capture sensors, KLB 5 nmol/L as analyte
T2 construct: the BLI off-rate screen was run with human and with monkey KLB; also called human KLB; ß-Klotho
T2 sequence (looked up): T1 sequence (looked up)

[4] = biological target: cell-surface receptor complex of human FGFR1c and beta-Klotho (KLB) on iLite FGF21 reporter cells (human, UniProt P11362 22-822; Q86Z14 1-1044); test: cell-based or functional assay
[5] = biological target: human FGFR1c/KLB receptor complex on primary human adipocytes (human, UniProt P11362 22-822; Q86Z14 1-1044); test: cell-based or functional assay
Chain of human FGFR1c/KLB receptor complex on primary human adipocytes (P11362 22-822, chain 1 of 2): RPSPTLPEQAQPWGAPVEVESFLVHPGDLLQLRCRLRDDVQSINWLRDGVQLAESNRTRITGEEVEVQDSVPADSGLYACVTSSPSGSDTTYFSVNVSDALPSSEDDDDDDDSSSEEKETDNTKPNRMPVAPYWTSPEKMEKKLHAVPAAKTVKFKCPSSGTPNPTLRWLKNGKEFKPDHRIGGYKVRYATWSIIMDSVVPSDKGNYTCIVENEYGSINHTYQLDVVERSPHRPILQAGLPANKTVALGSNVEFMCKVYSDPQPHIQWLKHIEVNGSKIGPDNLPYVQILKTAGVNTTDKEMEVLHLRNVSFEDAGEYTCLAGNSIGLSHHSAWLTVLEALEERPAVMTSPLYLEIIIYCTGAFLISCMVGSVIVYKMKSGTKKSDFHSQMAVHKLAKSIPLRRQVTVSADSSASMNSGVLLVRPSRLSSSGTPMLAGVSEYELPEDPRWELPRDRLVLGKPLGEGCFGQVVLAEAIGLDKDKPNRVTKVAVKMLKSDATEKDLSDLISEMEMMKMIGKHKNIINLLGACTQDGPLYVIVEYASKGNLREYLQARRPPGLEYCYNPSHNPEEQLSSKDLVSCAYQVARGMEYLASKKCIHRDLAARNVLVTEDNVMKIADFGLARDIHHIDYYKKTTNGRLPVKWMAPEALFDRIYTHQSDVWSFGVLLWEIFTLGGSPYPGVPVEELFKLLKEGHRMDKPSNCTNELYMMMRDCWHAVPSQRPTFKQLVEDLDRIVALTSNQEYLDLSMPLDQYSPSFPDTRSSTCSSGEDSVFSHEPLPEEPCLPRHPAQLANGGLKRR
Chain of human FGFR1c/KLB receptor complex on primary human adipocytes (Q86Z14 whole entry, chain 2 of 2): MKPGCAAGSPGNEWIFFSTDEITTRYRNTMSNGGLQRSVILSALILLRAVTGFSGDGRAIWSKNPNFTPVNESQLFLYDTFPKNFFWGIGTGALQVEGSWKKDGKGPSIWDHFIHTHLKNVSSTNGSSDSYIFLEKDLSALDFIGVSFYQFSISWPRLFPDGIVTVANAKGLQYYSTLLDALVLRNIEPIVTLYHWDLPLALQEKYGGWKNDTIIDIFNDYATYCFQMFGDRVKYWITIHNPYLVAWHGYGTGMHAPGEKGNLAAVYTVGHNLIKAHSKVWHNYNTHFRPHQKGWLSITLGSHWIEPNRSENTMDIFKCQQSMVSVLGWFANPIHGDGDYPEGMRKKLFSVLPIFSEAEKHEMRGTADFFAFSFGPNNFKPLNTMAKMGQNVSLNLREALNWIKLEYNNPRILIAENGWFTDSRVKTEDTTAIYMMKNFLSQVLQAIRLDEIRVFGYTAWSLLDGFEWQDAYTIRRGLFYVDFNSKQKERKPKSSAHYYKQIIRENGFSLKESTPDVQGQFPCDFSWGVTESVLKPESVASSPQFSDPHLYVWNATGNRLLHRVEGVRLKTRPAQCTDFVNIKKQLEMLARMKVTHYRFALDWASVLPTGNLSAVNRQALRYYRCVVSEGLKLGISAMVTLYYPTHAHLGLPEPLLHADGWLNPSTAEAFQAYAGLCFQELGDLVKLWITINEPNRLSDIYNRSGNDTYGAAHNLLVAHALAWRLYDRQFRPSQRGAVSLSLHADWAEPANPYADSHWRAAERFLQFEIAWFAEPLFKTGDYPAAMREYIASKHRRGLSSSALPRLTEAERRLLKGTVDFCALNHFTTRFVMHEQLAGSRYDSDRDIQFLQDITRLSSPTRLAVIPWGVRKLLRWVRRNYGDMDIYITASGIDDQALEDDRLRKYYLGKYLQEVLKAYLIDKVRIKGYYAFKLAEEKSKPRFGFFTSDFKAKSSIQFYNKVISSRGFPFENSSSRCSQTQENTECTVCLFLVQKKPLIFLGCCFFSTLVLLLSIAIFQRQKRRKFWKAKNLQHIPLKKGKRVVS

Chain of cell-surface receptor complex of human FGFR1c and beta-Klotho (KLB) on iLite FGF21 reporter cells (P11362 22-822, chain 1 of 2): as the sequence (P11362 22-822, chain 1 of 2) above
Chain of cell-surface receptor complex of human FGFR1c and beta-Klotho (KLB) on iLite FGF21 reporter cells (Q86Z14 whole entry, chain 2 of 2): as the sequence (Q86Z14 whole entry, chain 2 of 2) above
Chain of cell surface receptor composed of FGFR1c and co-receptor beta-Klotho (KLB) on iLite FGF21 Assay Ready Cells (P11362 22-822, chain 1 of 2): as the sequence (P11362 22-822, chain 1 of 2) above
Chain of cell surface receptor composed of FGFR1c and co-receptor beta-Klotho (KLB) on iLite FGF21 Assay Ready Cells (Q86Z14 whole entry, chain 2 of 2): as the sequence (Q86Z14 whole entry, chain 2 of 2) above

B1: 16H7 variant with light chain substitution Q88A (antibody, V domains shown)
VH: not shown
VL: SYVLTQPPSVSVAPGQTARITCGGNNIGSESVHWYQQKPGQAPVLVVYDDSDRPSGIPERFSGSNSGNTATLTISRVEAGDEADYYCAVWDGNSDHVVFGGGTKLTVLG
- koff [1]: 0.00011 s⁻¹
- Mean E max [2]: 108%
- Mean EC50 [2]: 0.133 nM

B2: 16H7 variant with light chain substitution Q88G (antibody, V domains shown)
VH: not shown
VL: B1 VL with A88G
- koff [1]: 0.00017 s⁻¹
- Mean E max [2]: 110%
- Mean EC50 [2]: 0.129 nM

B3: 16H7 variant with light chain substitution Q88L (antibody, V domains shown)
VH: not shown
VL: B1 VL with A88L
- koff [1]: 9.9e-05 s⁻¹
- Mean E max [2]: 107%
- Mean EC50 [2]: 0.134 nM

B4: 16H7 variant with light chain substitution Q88M (antibody, V domains shown)
VH: not shown
VL: B1 VL with A88M
- koff [1]: 9.9e-05 s⁻¹
- Mean E max [2]: 90%
- Mean EC50 [2]: 0.104 nM

B5: 16H7 variant with light chain substitution Q88S (antibody, V domains shown)
VH: not shown
VL: B1 VL with A88S
- Mean E max [2]: 104%

B6: 16H7 variant with single point mutation V98T in the light chain (antibody, V domains shown)
VH: not shown
VL: B1 VL with A88Q, V98T
notes: Tested from HEK293-F supernatant
- koff [3]: 3.1e-05 s⁻¹
- Mean E max (%), Luciferase gene reporter assay [4]: 99%
- Mean EC50 (nM), Luciferase gene reporter assay [4]: 0.088 nM

B7: 16H7 variant with single point mutation V98W in the light chain (antibody, V domains shown)
VH: not shown
VL: B1 VL with A88Q, V98W
notes: as for B6
- koff [3]: 5.6e-05 s⁻¹
- Mean E max (%), Luciferase gene reporter assay [4]: 99%
- Mean EC50 (nM), Luciferase gene reporter assay [4]: 0.099 nM

B8: 16H7 variant with single point mutation V98Y in the light chain (antibody, V domains shown)
VH: not shown
VL: B1 VL with A88Q, V98Y
notes: as for B6
- koff [3]: 5.9e-05 s⁻¹
- Mean E max (%), Luciferase gene reporter assay [4]: 100%
- Mean EC50 (nM), Luciferase gene reporter assay [4]: 0.109 nM

B9: human FGF21 (ligand)
chain: GHPIPDSSPLLQFGGQVRQRYLYTDDAQQTEAHLEIREDGTVGGAADQSPESLLQLKALKPGVIQILGVKTSRFLCQRPDGALYGSLHFDPEACSFRELLLEDGYNVYQSEAHGLPLHLPGNKSPHRDPAPRGPARFLPLPGLPPAPPEPPGILAPQPPDVGSSDPLSMVGPSQGRSPSYAS
- In-Cell Western pERK EC50, primary human adipocytes [5]: 0.206 nmol/L

B10: Ab0331 (antibody, human IgG4 S228P, lambda)
heavy: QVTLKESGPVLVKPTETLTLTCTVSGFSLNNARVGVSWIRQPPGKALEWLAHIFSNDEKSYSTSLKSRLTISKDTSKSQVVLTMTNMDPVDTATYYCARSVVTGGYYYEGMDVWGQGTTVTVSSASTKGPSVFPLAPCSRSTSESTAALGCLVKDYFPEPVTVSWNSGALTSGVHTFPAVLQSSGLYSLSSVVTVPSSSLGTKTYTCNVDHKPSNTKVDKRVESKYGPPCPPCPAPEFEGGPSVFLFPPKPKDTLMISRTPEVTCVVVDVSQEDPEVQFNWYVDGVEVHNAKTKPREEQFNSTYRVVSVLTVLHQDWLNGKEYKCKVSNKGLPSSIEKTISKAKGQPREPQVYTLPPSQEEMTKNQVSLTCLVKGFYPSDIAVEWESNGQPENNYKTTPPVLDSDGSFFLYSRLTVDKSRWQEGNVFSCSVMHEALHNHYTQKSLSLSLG
light: SYVLTQPPSVSVAPGQTARITCGGSNIGSESVHWYQQKPGQAPVLVVYSESDRPSGIPERFSGSNSGNTATLTISRVEAGDEADYYCQVWEGESDHVVFGGGTKLTVLGQPKANPTVTLFPPSSEELQANKATLVCLISDFYPGAVTVAWKADGSPVKAGVETTKPSKQSNNKYAASSYLSLTPEQWKSHRSYSCQVTHEGSTVEKTVAPTECS
- In-Cell Western pERK EC50, primary human adipocytes [5]: 0.101 nmol/L

B11: Ab0335 (antibody, human IgG4 S228P, lambda)
heavy: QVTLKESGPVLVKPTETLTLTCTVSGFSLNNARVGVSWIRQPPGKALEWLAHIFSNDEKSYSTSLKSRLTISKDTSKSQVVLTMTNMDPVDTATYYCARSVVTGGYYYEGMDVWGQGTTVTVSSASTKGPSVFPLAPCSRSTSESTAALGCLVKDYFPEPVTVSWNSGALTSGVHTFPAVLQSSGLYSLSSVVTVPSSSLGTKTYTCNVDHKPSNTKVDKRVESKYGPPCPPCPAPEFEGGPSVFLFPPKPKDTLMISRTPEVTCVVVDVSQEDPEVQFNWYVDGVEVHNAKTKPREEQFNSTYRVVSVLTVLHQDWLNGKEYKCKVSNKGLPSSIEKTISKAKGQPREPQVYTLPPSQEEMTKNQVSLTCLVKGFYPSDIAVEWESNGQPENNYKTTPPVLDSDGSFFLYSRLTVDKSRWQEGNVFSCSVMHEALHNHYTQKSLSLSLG
light: B10 light with E50A
- In-Cell Western pERK EC50, primary human adipocytes [5]: 0.142 nmol/L

B12: Ab0351 (antibody, human IgG4 S228P, lambda)
heavy: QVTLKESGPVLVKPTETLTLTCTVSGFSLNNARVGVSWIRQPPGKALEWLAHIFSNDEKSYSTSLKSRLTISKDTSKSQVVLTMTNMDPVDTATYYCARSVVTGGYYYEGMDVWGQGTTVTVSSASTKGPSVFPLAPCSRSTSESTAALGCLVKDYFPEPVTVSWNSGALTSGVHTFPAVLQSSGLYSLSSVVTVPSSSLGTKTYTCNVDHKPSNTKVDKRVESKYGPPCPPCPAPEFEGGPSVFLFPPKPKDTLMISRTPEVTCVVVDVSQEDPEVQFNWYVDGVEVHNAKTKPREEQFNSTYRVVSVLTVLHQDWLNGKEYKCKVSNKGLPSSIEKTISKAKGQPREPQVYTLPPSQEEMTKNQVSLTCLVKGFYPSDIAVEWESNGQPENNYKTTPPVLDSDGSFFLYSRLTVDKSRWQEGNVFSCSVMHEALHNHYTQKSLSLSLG
light: B10 light with S49E
- In-Cell Western pERK EC50, primary human adipocytes [5]: 0.156 nmol/L

B13: Ab0428 (antibody, human IgG1, lambda)
heavy: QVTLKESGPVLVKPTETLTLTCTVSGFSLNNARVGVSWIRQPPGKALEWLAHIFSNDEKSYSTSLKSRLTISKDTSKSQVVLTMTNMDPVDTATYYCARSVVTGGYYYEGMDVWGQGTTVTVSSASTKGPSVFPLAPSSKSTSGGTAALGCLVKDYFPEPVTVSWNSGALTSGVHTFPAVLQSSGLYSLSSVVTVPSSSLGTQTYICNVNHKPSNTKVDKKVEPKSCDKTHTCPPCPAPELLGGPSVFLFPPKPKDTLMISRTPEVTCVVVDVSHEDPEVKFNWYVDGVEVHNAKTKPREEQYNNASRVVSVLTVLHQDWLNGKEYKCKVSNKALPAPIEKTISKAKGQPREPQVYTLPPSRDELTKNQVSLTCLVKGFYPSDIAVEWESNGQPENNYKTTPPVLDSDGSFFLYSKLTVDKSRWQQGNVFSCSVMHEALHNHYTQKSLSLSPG
light: B10 light
- In-Cell Western pERK EC50, primary human adipocytes [5]: 0.072 nmol/L

B14: Ab0429 (antibody, human IgG1, lambda)
heavy: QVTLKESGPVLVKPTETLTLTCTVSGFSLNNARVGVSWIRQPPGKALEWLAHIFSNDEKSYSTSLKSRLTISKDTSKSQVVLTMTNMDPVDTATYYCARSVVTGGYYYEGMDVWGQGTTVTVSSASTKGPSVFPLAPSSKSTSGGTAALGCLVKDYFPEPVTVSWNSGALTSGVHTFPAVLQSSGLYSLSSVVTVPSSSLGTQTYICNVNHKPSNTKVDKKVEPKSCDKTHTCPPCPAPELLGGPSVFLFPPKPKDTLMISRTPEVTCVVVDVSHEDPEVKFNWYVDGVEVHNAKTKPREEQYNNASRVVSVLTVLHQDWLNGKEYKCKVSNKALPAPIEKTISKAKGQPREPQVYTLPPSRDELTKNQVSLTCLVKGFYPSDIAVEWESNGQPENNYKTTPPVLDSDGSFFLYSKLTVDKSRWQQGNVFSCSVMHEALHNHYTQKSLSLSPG
light: B10 light with E50A
- In-Cell Western pERK EC50, primary human adipocytes [5]: 0.078 nmol/L

B15: Ab0430 (antibody, human IgG1, lambda)
heavy: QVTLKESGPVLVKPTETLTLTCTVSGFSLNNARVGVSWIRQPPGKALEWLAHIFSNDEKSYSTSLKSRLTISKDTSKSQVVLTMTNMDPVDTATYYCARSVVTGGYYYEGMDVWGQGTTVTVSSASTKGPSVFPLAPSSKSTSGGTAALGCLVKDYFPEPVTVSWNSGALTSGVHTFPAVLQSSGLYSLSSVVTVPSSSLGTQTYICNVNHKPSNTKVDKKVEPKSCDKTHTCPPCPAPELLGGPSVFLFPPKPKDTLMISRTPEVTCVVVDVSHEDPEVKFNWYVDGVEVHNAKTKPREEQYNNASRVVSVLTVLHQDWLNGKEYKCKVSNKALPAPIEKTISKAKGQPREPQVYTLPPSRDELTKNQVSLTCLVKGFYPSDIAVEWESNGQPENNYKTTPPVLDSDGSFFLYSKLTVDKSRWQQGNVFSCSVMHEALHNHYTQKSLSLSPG
light: B10 light with S49E
- In-Cell Western pERK EC50, primary human adipocytes [5]: 0.116 nmol/L
